In patent US20020102606A1 (published 2002):

T1: PRAK NUC 201-1104 K51M (bait) (UniProt Q8IW41 1-301)
T1 construct: Limits printed as nucleotides only; also called Protein Kinase PRAK
T1 sequence (looked up): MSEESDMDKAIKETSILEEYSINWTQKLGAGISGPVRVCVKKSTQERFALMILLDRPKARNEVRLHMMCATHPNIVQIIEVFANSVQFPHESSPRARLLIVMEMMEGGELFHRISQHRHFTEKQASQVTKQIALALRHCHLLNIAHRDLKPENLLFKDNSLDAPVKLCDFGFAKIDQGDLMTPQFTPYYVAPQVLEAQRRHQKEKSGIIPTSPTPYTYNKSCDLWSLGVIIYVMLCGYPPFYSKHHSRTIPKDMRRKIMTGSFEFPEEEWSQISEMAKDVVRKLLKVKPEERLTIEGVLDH

T2: PRAK NUC 201-1104 (bait, no mutation) (UniProt Q8IW41 1-301)
T2 construct: Limits printed as nucleotides only; also called Protein Kinase PRAK
T2 sequence (looked up): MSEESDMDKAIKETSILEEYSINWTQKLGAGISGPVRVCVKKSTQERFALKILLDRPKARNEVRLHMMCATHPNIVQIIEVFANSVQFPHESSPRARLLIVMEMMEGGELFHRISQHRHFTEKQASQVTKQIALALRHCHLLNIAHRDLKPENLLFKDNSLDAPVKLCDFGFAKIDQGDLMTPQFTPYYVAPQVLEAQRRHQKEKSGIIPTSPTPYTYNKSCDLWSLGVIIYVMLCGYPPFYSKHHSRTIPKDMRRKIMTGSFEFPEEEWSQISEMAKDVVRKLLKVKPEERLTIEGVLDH

T3: PRAK NUC 201-1104 K51M, T182D (bait) (UniProt Q8IW41 1-301)
T3 construct: Limits printed as nucleotides only; also called Protein Kinase PRAK
T3 sequence (looked up): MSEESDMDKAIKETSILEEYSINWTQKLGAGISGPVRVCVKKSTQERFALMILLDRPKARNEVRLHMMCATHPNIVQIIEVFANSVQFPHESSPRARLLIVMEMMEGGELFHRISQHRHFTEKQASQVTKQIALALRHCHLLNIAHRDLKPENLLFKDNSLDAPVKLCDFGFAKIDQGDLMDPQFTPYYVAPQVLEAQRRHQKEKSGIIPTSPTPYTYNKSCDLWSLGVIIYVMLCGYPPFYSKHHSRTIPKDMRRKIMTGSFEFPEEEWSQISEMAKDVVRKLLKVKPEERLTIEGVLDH

T4: Profilin II amino acids 4-91 (prey) (human, UniProt P35080 4-91)
T4 construct: range 4-91
T4 sequence (looked up): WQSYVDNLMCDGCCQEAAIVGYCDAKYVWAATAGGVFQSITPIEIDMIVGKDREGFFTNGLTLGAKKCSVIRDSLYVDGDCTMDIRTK

T5: p38 gamma amino acids 29-368 (bait) (UniProt P53778 29-367)
T5 construct: range 29-368; also called Protein Kinase p38 gamma; p38 gamma kinase
T5 sequence (looked up): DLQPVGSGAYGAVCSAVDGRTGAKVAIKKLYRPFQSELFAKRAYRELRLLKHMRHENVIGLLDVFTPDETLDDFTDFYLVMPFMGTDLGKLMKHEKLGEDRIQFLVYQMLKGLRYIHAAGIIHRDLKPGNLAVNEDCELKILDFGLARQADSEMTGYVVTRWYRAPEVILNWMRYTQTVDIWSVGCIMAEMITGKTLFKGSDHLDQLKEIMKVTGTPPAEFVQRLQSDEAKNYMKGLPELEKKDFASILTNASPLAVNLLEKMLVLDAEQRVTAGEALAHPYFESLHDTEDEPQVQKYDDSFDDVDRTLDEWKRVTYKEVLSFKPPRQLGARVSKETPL


Legend:
Assay in all cases: yeast two-hybrid; prey clone found with the bait of the row
[1] = biological target: T1, PRAK NUC 201-1104 K51M (bait)
Description: (§1) A total human brain (person) cDNA library cloned into the yeast expression vector pACT2 was purchased from Clontech (human brain […] cDNA, cat. # HL4004AH), transformed into the yeast strain J692 (genotype of this strain: Mat a, ade2, his3, leu2, trp1, URA3::GAL1-lacZ LYS2::GAL1-HIS3 ga14del ga180del cyhR2), and selected for the ability to drive leucine synthesis. In these yeast cells, each cDNA is expressed as a fusion protein with the transcription activation domain of the transcription factor Ga14 (amino acids 768 to 881) and a 9 amino acid hemagglutinin epitope tag. J693 cells (Mat α type) expressing the bait were then mated with J692 cells (Mat a type) expressing proteins from the brain library. The resulting diploid yeast cells expressing proteins interacting with the bait protein were selected for the ability to synthesize tryptophan, leucine, histidine, and β-galactosidase. DNA was prepared from each clone, transformed by electroporation into E. coli strain KC8 (Clontech KC8 electrocompetent cells, cat. # C2023-1), and the cells were selected on ampicillin-containing plates in the absence of either tryptophane (selection for the bait plasmid) or leucine (selection for the brain library plasmid). DNA for both plasmids was prepared and sequenced by di-deoxynucleotide chain termination method. The identity of the bait cDNA insert was confirmed and the cDNA insert from the brain library plasmid was identified using BLAST program against public nucleotides and protein databases. Plasmids from the brain library (preys) were then individually transformed into yeast cells together with a plasmid driving the synthesis of lamin fused to the Ga14 DNA binding domain. Clones that gave a positive signal after β-galactosidase assay were considered false-positives and discarded. Plasmids for the remaining clones were transformed into yeast cells together with plasmid for the original bait. Clones that gave a positive signal after β-galactosidase assay were considered true positives.
(§2) The “AA” refers to the amino acids of the bait or prey. The “NUC” refers to the nucleotides of the bait or prey.

[2] = biological target: T2, PRAK NUC 201-1104 (bait, no mutation)
Description: as §1, §2

[3] = biological target: T3, PRAK NUC 201-1104 K51M, T182D (bait)
Description: as §1, §2

[4] = biological target: T6, MAPKAP-K3 NUC 433-1003 (bait) (UniProt Q16644 114-304)
T6 construct: range 114-304; also called MAP Kinase MAPKAP-K3
Description: as §1, §2

[5] = biological target: T4, Profilin II amino acids 4-91 (prey)
Description: as §1, §2

[6] = biological target: T5, p38 gamma amino acids 29-368 (bait)
Description: as §1, §2

T6 sequence (Q16644 114-304 limits assumed): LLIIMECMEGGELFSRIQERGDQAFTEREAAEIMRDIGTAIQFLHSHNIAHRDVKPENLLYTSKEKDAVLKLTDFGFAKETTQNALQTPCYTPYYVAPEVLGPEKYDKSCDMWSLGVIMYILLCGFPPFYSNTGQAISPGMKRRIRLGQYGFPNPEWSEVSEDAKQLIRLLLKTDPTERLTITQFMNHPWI

Row | binding result [3] | binding result [4] | Binder | also measured
1 |  |  | MLK2 amino acids 398-556 (prey) (enzyme, human, UniProt Q02779 398-556, looked up, range 398-556; also called mixed lineage kinase) LRSREEELLRAAQEQRFQEEQLRRREQELAEREMDIVERELHLLMCQLSQEKPRVRKRKGNFKRSRLLKLREGGSHISLPSGFEHKITVQASPTLDKRKGSDGASPPASPSIIPRLRAIRLTPVDCGGSSSGSSSGGSGTWSRGGPPKKEELVGGKKKG | binding result [1]: binds; binding result [2]: binds
2 | binds |  | Homer-3 NUC 774-1152 (prey) (other, human, UniProt Q9NSC5 228-354, looked up, Limits printed as nucleotides only) RQRVAELEAQAASEVTPTGEKEGLGQGQSLEQLEALVQTKDQEIQTLKSQTGGPREALEAAEREETQQKVQDLETRNAELEHQLRAMERSLEEARAERERARAEVGRAAQLLDVSLFELSELREGLA | 
3 |  | binds | Homer-3 NUC 720-1152 (prey) (other, human, UniProt Q9NSC5 210-354, looked up) AAQWRQQLEAQRAEAERLRQRVAELEAQAASEVTPTGEKEGLGQGQSLEQLEALVQTKDQEIQTLKSQTGGPREALEAAEREETQQKVQDLETRNAELEHQLRAMERSLEEARAERERARAEVGRAAQLLDVSLFELSELREGLA | 
4 |  |  | MMEDDGQPRTLYVGNLSRDVTEVLILQLFSQIGPCKSCKMITEHTSND (other) [TIAR amino acids 1-48 (bait)] | binding result [5]: binds
5 | binds |  | Histone Acetyl Transferase 1 (HAT1) amino acids 334-420 (prey) (enzyme, human, UniProt O14929 334-419, looked up, range 334-420) ILRLLVTDMSDAEQYRSYRLDIKRRLISPYKKKQRDLAKMRKCLRPEELTNQMNQIEISMQHEQLEESFQELVEDYRRVIERLAQE | 
6 |  | binds | Nuclear Mitotic Apparatus Protein 1 (NuMA1) NUC 1395-1713 (prey) (other, human, UniProt Q14980 413-519, looked up, range 413-519) LQLETLKQEAATLAANNTQLQARVEMLETERGQQEAKLLAERGHFEEEKQQLSSLITDLQSSISNLSQAKEELEQASQAHGARLTAQVASLTSELTTLNATIQQQDQ | 
7 | binds |  | Nuclear Mitotic Apparatus Protein 1 (NuMA1) NUC 1394-1711 (prey) (other, human, UniProt Q14980 413-519, looked up, Limits printed as nucleotides only) LQLETLKQEAATLAANNTQLQARVEMLETERGQQEAKLLAERGHFEEEKQQLSSLITDLQSSISNLSQAKEELEQASQAHGARLTAQVASLTSELTTLNATIQQQDQ | 
8 |  |  | DLG2 amino acids 294-594 (prey) (other, human, UniProt Q15700 294-594, looked up, range 294-594; also called chapsyn-110) THSYSPPMENHLLSGNNGTLEYKTSLPPISPGRYSPIPKHMLVDDDYTRPPEPVYSTVNKLCDKPASPRHYSPVECDKSFLLSAPYSHYHLGLLPDSEMTSHSQHSTATRQPSMTLQRAVSLEGEPRKVVLHKGSTGLGFNIVGGEDGEGIFVSFILAGGPADLSGELQRGDQILSVNGIDLRGASHEQAAAALKGAGQTVTIIAQYQPEDYARFEAKIHDLREQMMNHSMSSGSGSLRTNQKRSLYVRAMFDYDKSKDSGLPSQGLSFKYGDILHVINASDDEWWQARRVMLEGDSEEMG | binding result [6]: binds
9 |  | binds | ERF-2 amino acids 7-192 (prey) (other, human, UniProt P47974 7-192, looked up, range 7-192; also called TIS11D) SAFYDVDFLCKTEKSLANLNLNNMLDKKAVGTPVAAAPSSGFAPGFLRRHSASNLHALAHPAPSPGSCSPKFPGAANGSSCGSAAAGGPTSYGTLKEPSGGGGTALLNKENKFRDRSFSENGDRSQHLLHLQQQQKGGGGSQINSTRYKTELCRPFEESGTCKYGEKCQFAHGFHELRSLTRHPKY | 
10 |  | binds | Vimentin amino acids 309-463 (prey) (other, human, UniProt P08670 309-463, looked up, range 309-463) LRQAKQESTEYRRQVQSLTCEVDALKGTNESLERQMREMEENFAVEAANYQDTIGRLQDEIQNMKEEMARHLREYQDLLNVKMALDIEIATYRKLLEGEESRISLPLPNFSSLNLRETNLDSLPLVDTHSKRTLLIKTVETRDGQVINETSQHHD | 
